Measurements reported in the nanobody polyreactivity screen of Harvey et al. (2022).

Assay: yeast display, Sf9 membrane polyspecificity reagent, FACS + sequencing; frameworks hold sequencing errors
In short: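 Sorting gates, low and high (top ~1%), were placed on anti-HA fluorescence to track expression and on streptavidin fluorescence to track reagent binding. A clone's polyreactivity label is taken from the gate it came out of. The reagent was 10% biotinylated, detergent-solubilized Sf9 membrane, applied for 1 hour at 4 °C to galactose-induced yeast display cells.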

Sequence	polyreactivity (PSR sort gate)
QVQLVESGGGLVQAGGSLRLSCAASGFIFNRNAMGWYRQAPGKERELVAGINSGGTTKYADSVKGRFTISRDNAKNTVYLQMISLIPEDTAVYYCAKPLNYRYYVGYPLDYWGQGTQVTVSS	low polyreactivity
QVQLVESGGGIVQAGGSLRLSCAASGRTFWGYAMGWYRQAPGKERELVASISGRGGSTYYADSVKERFTISRDTAKNTVYLQINSLQPEDTAVYYCAATYFSVKWYYYWGEGTQVTVSS	high polyreactivity
QVQLVESGGGLVQAGGSLRLSCAASGSIFYANAMGWYRQAPWKEREFVAAISSSGGGTSYADSVKGRFTISRDNAKNTVYLQMNSLKPEDTAVYYFAARVTYGGIPARQIYDYWGQGTQVTVSS	low polyreactivity
QVQLVESGGGLVQAGGSLRLSCAASGRTFLSYAMGWYRQAPGKERELVAAITSSGGTTNYADSVKGRFTISRDNAKNTVYLQMNSLKPEDTAVYYCAAYSWYFGSRYDYWGQGTQVTVSS	low polyreactivity
QDQLVESGGGLVQAGGSLRLSCAASGSIFNVNTMGWYRQAPGKERGLVAAISYSGGSTYYADSVKGRFTISRDNAKNTVYLQMNSLKPEETAVYYCNVSPTTSGDGGGYDSWGQGTQVTVSS	low polyreactivity
QVQLVESGGGLVQAGGSLRLICAASGRIFRHYAMGWYRQAPGKEREFVAAISRSGGSTYYADSVKGRFTISRDNAKNTVYLQMHSLKPEDTAVYYCYARHRYTGIRFFQPYDYWGQGTQVTVSS	low polyreactivity
QVQLVESGGGLVQAGGSLRLSCAASGSTFGYNAMGWYRQAPGKERELVAAISRGGRITYYADSVKGRFTISRDNAKNTVYLQMNSLKQEDTAVYNCAARVQWRGYGYYYWGQGTQVTVSS	high polyreactivity
QVQLVESGRGLVQAGGSLRLSCAASGIIFSSYAMGWYRQAPGKERELVAAISYSGGSTYYADSVKGLFSISRDNAKNTVYLEMNCLIPEDTAVYYCAAQGYSPGGYDYWGQGTQVTVSW	low polyreactivity
QVQLVESGGGLVQAGGSLRLSSAPSGNTFYWYVMGWYRHAPGKERELVARINSSGGTTNYADSVKGRFTISRDNAKNTVYFQMNSLKPEVTAVYYCAADDIYLYGGGTDYYFCGQGTQVTVSS	low polyreactivity
QVQLVESGGGLVQAGGSLRLSCAASGSIFTVYAMGWYRQAPGKESELVAGITRRGSTYYADSVKGRFTISRDNAKNTFYLLMNRLKPEDTAVYYCAASRWVLESSGRVNWYDYWGQVTQVTVSS	low polyreactivity
QVQLVESWGGLVQAGGSLRLSCAASGSIFDVNAMGWYRQAPGKERELVAAISDSGGSTYYADSVKGRFTISRDNAKNTVYLQMNSLKPEDTAVYYCNADWSWYNYYDFDYWGQGTQVTVSS	low polyreactivity
QVQLVESGGGLVQAGGSLRLSCAASGSTFTYNAMGWYRQAPGKVRELVASISSGTTTYYADSVKGRFTISRDNAKNTVYLQMNSLTPEDTAVYYCAVDSWSRVQGWLAHNYDYWGQGTQVTVSS	low polyreactivity
QVQLQESAGGLVQAGGSLRMSCAASGTIFSEANMGWYRQAPGKERELVATIGQGSTTNYADSVKGRFTISRDNAKNTVYLQMNSLKPEETAVYYCAVVTVDPVGFVYWGQGTQVTVSS	low polyreactivity
QVQLVESGGGLVQAGGSLRLSCAASGSTFSLYDMGWYRQAPGKERELVAAISYSGGSTYYADSVKGRFTISRDNAKNTVYLQMNSLKPEDTAVFYCATRLFYPRFFYWGQGTQVTVSS	high polyreactivity
QVQLVESGGGLVQAGGSLRLSCAASGSIFTYNAMGWYRQAPGKERELVAAISTSGGSTYYADSVKGRFTISRDNAKNTVYLQMNSLKPEDTAVYYCAAEYYVYPFWYGYWGQGTQVTVSS	high polyreactivity
QVQLVESGGGLVQAGGSLRLSCAASGRTFSRNAMGWYRQAPGKERELVAAITSRGGTTYYADSVKGRFTISRDNAKNTVYLQMNSLKPEDTAVYYCNAAPRARSKVSYDYWGQGTQVTVSS	high polyreactivity
QVQLVESGGGLVQAGGSLRLSCAASGSTFWLNAMGWYRQAPGKEREYVAAITWSSGSTYYADSVKGRFTISRDNAKNTVYLQMNSLKPEDTAVYYCAADGRYVRIRGDYWGQGTQVTVSS	low polyreactivity
QVQVVESGAGEVQAGGSLRLSCAASGSIFPFNAMGWYRQAPGKERELVAAISVNGGSTYYADSVKGRFTISRDNAKNTVYIQMNSLKPEDTAVYYCNTGGTFLDWVRRPFGFGYWGQGTQVTVSS	low polyreactivity
QVQLVESGGGLVQAGGSLRLSCAASGRTFGYNAMGWYRQAPGKESEFVAAISWSGGRTYYADSVKGRFTISRDNAKNTVYLQMNSLKPEDTAVYYCAAGFGDGPGNGYYTRYSWDDDYWGQGTQVTVSS	low polyreactivity
QVQLVESGGGLVQAGGSLRLSCAASGRIFGLNAMGWYRQAPGKETEFVAAITWRGGRTYYADSVKGRFTISRDKANKTVYLQMNSLKPEDTAVYYCAADGGSTLDYFWGQGTQVTVSS	low polyreactivity
QVQLVESGGGLVQAGGSLRLSCADSGSIFIANAMGWYRPAPGKERELVAAIDSGGSTNYADSVKGRFTSSRDNAKNTVYLQMNSLKPEDTAVYYCAADGTLTAPGGDYWGQGTQVTVSS	high polyreactivity
QVQLVESGGGLVQAGGSLRLSCAASGRIFEAYAMGWYRQAPGKERELVAAISGSGGSTYYADSVKGRFTISRDNAKNTVYLQMNSLKPEDTAVYYCAADDYYRVYWGQGTQVTVSS	high polyreactivity

Sequence	polyreactivity (PSR sort gate)
QDQLVEAGGGLVQAGGSLRLSCAASGRIFYPDAMVWYRQAPGKERELVAAIRRSGVDTYYADSVKVRFTISRDNAKNTVSLQRNSLKPEDTAVYYCAADPYWFFPHYDSWGQGTQVTVSS	low polyreactivity
QVQLEESVGGLVQAGGSLRLSCAASGRIFVRNAMGWYRQAPGKERELVATITSIGGRTYYADSVKGRFTISRDNAKNTVYLQMNSLKPEDTAVYYCAAYNTQSYPAYLRYDYWGQGTQVTVSS	low polyreactivity
QVQLVESGGGLVQAGGSLRLRGAASGSIFKGNAMGWYRQAPGKERELVAAITRSVARTYYADSVKVRFTISRDNAKNTVYLQMNSLKPEDTAVYDCAADWYQWGGRYYAPRYYYWGQGTQVTVSS	high polyreactivity
QVQLVESGGGLVQAGGSLRLSCAASGSTFPYYAMGWYRQAPGKERELVAVITSSGSRTYYADSVKGRFTISRDNAKNTVYLQMNSLKPEDTAVYYCARDTRYYRPYRSQYDYWGQGTQVTVSS	high polyreactivity
QVQLVESGGGLVQAGGSLRLSCAASGNTFRWYAMGWYRQAPGKEREFVADITVRGGSTYYADSVKGRFTISRDNAKNTVYLQMNSLKPEDTAVYYCASYHYYTYDYWGQGTQVTVSS	low polyreactivity
QVQLVESGGGLVQAGGSLRLSCAASGSIFQIYAMGWYRQAPGKERELAAAINSGGITKYADSVKGRFTISRDNAKNTVYLQMNSLKPEDTAVYYCAKRYGWPYGRFDYWGQGTQVTVSS	low polyreactivity
QVQLGESGGGLVQAGGSLSLSCAASGITLHNYAMGWYRQAPGKERELVAAISRRGGNTYYADSVKGRFTISRDNAKNTVYLQMNSLIPEDTAVSYCAAYYHGRMDYWGQGTQVTVSS	high polyreactivity
QVQLVESGGGLVQAGGSLRFSCAASGSIFYVYAMGWYRQAPGKERELVAAIRWSGGSTYYADSVKGRFTISRDNAKKSVYLQMNSLKPEDTAVYYCAADAIPDSVCYWEYDYWGQGTQVTVSS	low polyreactivity
QVQLVQSGGGLVQAGVSLRLSCAPSGFTFYKYAMGWYRQAPGKERELVAAISGSGTSTYYADSVKGRFTISRHNAKNTVYLQMNSLKPEDTAVYYCATRIVFTRRRMYSWGQGTQVNVSS	high polyreactivity
QVQLVESGGGLVQAGGSLSLSCAASGFIFHYYAMAGYRQAPGKERELVAAISKTVGSTYYADSVKGRFTISRDNAKNTVYLQMNSRKPEDTAVYYCAVGYSRRNTPYDYWGQGTQVTVSS	high polyreactivity
QVQLVESGGCLVQAGGSLRLSCAASGSIFLTYAMGWYIQAPGKERELVASSTGGGSTNYADSVKGRFTSSRDNAKNTVYLQRNSLKPEDTAVYYCAKKAIVSDQWDKYDYWGQGTQVTVSS	low polyreactivity
QVQLVESGGGLVQAGGSLRLSCAASGNTFIRNVMGWYRQAPGKERELVAGIRTGGSTFYADSVKGRFTISRDNAKNTVYLQMNSLKPEDTAVYYCNADVGDEGNLPYVIRPMDYWGQGTQVTVSS	low polyreactivity
QVQLVESGGGLVQAGGSIRLSCAASGRTFPAYAMGWYRQAPGKERELVAAISYSGGRTRYADSVKGRFTISRDNAKYTVYLQMNSLKPEDTAVYYCNRVIPTQSLRDYYWGQGTQVTVSS	high polyreactivity
QVQLVESGGGLVQAGGSLGLSCAASGRIFSRNAMGWYRQATGKEREFVAAISRRGTSTYYADSVKGRFTISRDNAMNTVYLQMNSLNPESTAVYYCNVDQWASQRYSRYDYWGQGTQVTVSW	high polyreactivity
QVQLVESGGGLDQAGGSLRLTCAASGNTFRSYAMGWSRQAPGKEREFVAAISLSGGNTYYADSVKGRFTISRDNAKNTVYVQMNSLKPEDTAVYYCAADYEYSGYGYWGQGTQVTVSS	high polyreactivity
QVQLVEAGGGLVQAGGSLRLSCAASGSTFPYYTMGGYRQAPGKDRELVAAITWRGGRTYYADSVKGRFTISRDNAKNTVYLQMNSLKPEDTAVYYCAAKQKHTQQTGWKYEYWGQGTQVTVSS	high polyreactivity
QVQLVESGGGLVQAGGSLRLSCAASGFTFSTNAMAWYRQAPGKERELVAAITSSGGSTYYADSVKGRFTISRDNAKNTVYLQMNSLKPEDTAVYYCATGPSQVGGDYWGQGTQVTVSS	high polyreactivity
QVQLVESGGGLVQAGGSLRLSCAASGSTFDGNAKGWYRQAPGKERELVATINSGSSTNYADSVKGRFTISRDNAKNTVYLQMISLKPEDTAVFYCNVDSGSDSLVYSVRYNYWGQGTQVTVSS	low polyreactivity
QVQLVESGGGLVQAGGSLRLSCAASGITFVFNAMGWYRQAPGKERELVASITIGGNTYYADSVKGRFTISRDNAKNTVYLQMNSLKPEDSAVYYCAADIARSVRFYYWGQGTQVTVSS	low polyreactivity
QVQLVESGGGLVQAGGSLRLSCAASGRTIAAYAMGWYRQAPGKERELVAAISRSGGSTYYADSVKGRFTISRDNAKNTVYLQMNSLKPEDTAVYYCAAYYIVSSLFGYWGQGTQVTVSS	high polyreactivity
QVQLVESGGGLVQAGGSLRLSCAASGLIFRYYDMGWYRQAPGKERELVAAISSSGTRTYYADSVKGRFTISRENPKNTVYLQMNSLKPEDTSVYYCATENQNPTGGYWGQGTQVTVSS	high polyreactivity
